Source: article PMC3268394 (The Journal of Biological Chemistry, 2011)

B1: His-tagged UBP domain of USP5 (171–290) (domain or fragment)
chain: GEVRQVSKHAFSLKQLDNPARIPPCGWKCSKCDMRENLWLNLTDGSILCGRRYFDGSGGNNHAVEHYRETGYPLAVKLGTITPDGADVYSYDEDDMVLDPSLAEHLSHFGIDMLKMQKTD
B2: ubiquitin C-terminal pentapeptide RLRGG (peptide)
peptide: RLRGG

Legend:
ubiquitin = ubiquitin (UniProt P0CG48 1-76); assay: pull-down
[1] = molecular target: T1, HDAC6 ZnF-UBP domain (1109–1215), His tag cleaved (UniProt Q9UBN7 1109-1215); assay: crystal structure
T1 sequence: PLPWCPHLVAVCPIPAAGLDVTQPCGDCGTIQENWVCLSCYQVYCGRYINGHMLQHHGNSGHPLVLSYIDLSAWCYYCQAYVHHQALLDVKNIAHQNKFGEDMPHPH

Row | Binder | binding result (ubiquitin) | binding result [1]
1 | B1 | binds | 
2 | B2 |  | binds
